The values that follow come from publication PMC3592467 (Nucleic Acids Research, 2012).

The target of the assay is T1, MBD3-GFP (UniProt O95983 1-291).
T1 sequence: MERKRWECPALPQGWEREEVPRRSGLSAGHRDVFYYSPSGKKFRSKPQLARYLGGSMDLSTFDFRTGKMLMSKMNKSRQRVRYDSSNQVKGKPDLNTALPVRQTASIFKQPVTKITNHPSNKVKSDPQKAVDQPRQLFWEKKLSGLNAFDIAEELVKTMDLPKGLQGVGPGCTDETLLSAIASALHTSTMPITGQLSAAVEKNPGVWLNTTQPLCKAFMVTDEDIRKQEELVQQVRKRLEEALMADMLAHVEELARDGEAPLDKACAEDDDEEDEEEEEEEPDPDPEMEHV
As to the kind of experiment: affinity purification with mass spectrometry.

B1: ZNF592 (natural protein)
chain: MGDMKTPDFDDLLAAFDIPDPTSLDAKEAIQTPSEENESPLKPPGICMDESVSLSHSGSAPDVPAVSVIVKNTSRQESFEAEKDHITPSLLHNGFRGSDLPPDPHNCGKFDSTFMNGDSARSFPGKLEPPKSEPLPTFNQFSPISSPEPEDPIKDNGFGIKPKHSDSYFPPPLGCGAVGGPVLEALAKFPVPELHMFDHFCKKEPKPEPLPLGSQQEHEQSGQNTVEPHKDPDATRFFGEALEFNSHPSNSIGESKGLARELGTCSSVPPRQRLKPAHSKLSSCVAALVALQAKRVASVTKEDQPGHTKDLSGPTKESSKGSPKMPKSPKSPRSPLEATRKSIKPSDSPRSICSDSSSKGSPSVAASSPPAIPKVRIKTIKTSSGEIKRTVTRILPDPDDPSKSPVGSPLGSAIAEAPSEMPGDEVPVEEHFPEAGTNSGSPQGARKGDESMTKASDSSSPSCSSGPRVPKGAAPGSQTGKKQQSTALQASTLAPANLLPKAVHLANLNLVPHSVAASVTAKSSVQRRSQPQLTQMSVPLVHQVKKAAPLIVEVFNKVLHSSNPVPLYAPNLSPPADSRIHVPASGYCCLECGDAFALEKSLSQHYGRRSVHIEVLCTLCSKTLLFFNKCSLLRHARDHKSKGLVMQCSQLLVKPISADQMFVSAPVNSTAPAAPAPSSSPKHGLTSGSASPPPPALPLYPDPVRLIRYSIKCLECHKQMRDYMVLAAHFQRTTEETEGLTCQVCQMLLPNQCSFCAHQRIHAHKSPYCCPECGVLCRSAYFQTHVKENCLHYARKVGYRCIHCGVVHLTLALLKSHIQERHCQVFHKCAFCPMAFKTASSTADHSATQHPTQPHRPSQLIYKCSCEMVFNKKRHIQQHFYQNVSKTQVGVFKCPECPLLFVQKPELMQHVKSTHGVPRNVDELSSLQSSADTSSSRPGSRVPTEPPATSVAARSSSLPSGRWGRPEAHRRVEARPRLRNTGWTCQECQEWVPDRESYVSHMKKSHGRTLKRYPCRQCEQSFHTPNSLRKHIRNNHDTVKKFYTCGYCTEDSPSFPRPSLLESHISLMHGIRNPDLSQTSKVKPPGGHSPQVNHLKRPVSGVGDAPGTSNGATVSSTKRHKSLFQCAKCSFATDSGLEFQSHIPQHQVDSSTAQCLLCGLCYTSASSLSRHLFIVHKVRDQEEEEEEEAAAAEMAVEVAEPEEGSGEEVPMETRENGLEECAGEPLSADPEARRLLGPAPEDDGGHNDHSQPQASQDQDSHTLSPQV
Regarding B1, the “stoichiometry N” value is ~0.01 relative to MBD3.

B2: ZMYND8 (natural protein)
chain: MDISTRSKDPGSAERTAQKRKFPSPPHSSNGHSPQDTSTSPIKKKKKPGLLNSNNKEQSELRHGPFYYMKQPLTTDPVDVVPQDGRNDFYCWVCHREGQVLCCELCPRVYHAKCLRLTSEPEGDWFCPECEKITVAECIETQSKAMTMLTIEQLSYLLKFAIQKMKQPGTDAFQKPVPLEQHPDYAEYIFHPMDLCTLEKNAKKKMYGCTEAFLADAKWILHNCIIYNGGNHKLTQIAKVVIKICEHEMNEIEVCPECYLAACQKRDNWFCEPCSNPHPLVWAKLKGFPFWPAKALRDKDGQVDARFFGQHDRAWVPINNCYLMSKEIPFSVKKTKSIFNSAMQEMEVYVENIRRKFGVFNYSPFRTPYTPNSQYQMLLDPTNPSAGTAKIDKQEKVKLNFDMTASPKILMSKPVLSGGTGRRISLSDMPRSPMSTNSSVHTGSDVEQDAEKKATSSHFSASEESMDFLDKSTASPASTKTGQAGSLSGSPKPFSPQLSAPITTKTDKTSTTGSILNLNLDRSKAEMDLKELSESVQQQSTPVPLISPKRQIRSRFQLNLDKTIESCKAQLGINEISEDVYTAVEHSDSEDSEKSDSSDSEYISDDEQKSKNEPEDTEDKEGCQMDKEPSAVKKKPKPTNPVEIKEELKSTSPASEKADPGAVKDKASPEPEKDFSEKAKPSPHPIKDKLKGKDETDSPTVHLGLDSDSESELVIDLGEDHSGREGRKNKKEPKEPSPKQDVVGKTPPSTTVGSHSPPETPVLTRSSAQTSAAGATATTSTSSTVTVTAPAPAATGSPVKKQRPLLPKETAPAVQRVVWNSSSKFQTSSQKWHMQKMQRQQQQQQQQNQQQQPQSSQGTRYQTRQAVKAVQQKEITQSPSTSTITLVTSTQSSPLVTSSGSMSTLVSSVNADLPIATASADVAADIAKYTSKMMDAIKGTMTEIYNDLSKNTTGSTIAEIRRLRIEIEKLQWLHQQELSEMKHNLELTMAEMRQSLEQERDRLIAEVKKQLELEKQQAVDETKKKQWCANCKKEAIFYCCWNTSYCDYPCQQAHWPEHMKSCTQSATAPQQEADAEVNTETLNKSSQGSSSSTQSAPSETASASKEKETSAEKSKESGSTLDLSGSRETPSSILLGSNQGSDHSRSNKSSWSSSDEKRGSTRSDHNTSTSTKSLLPKESRLDTFWD
Consider B2, for which the “stoichiometry N” value was ~0.01 relative to MBD3.
